In patent EP2182008A2 (ICOS Corporation, dated 2010):

B1: soluble ICAM-R/IgG1 fusion protein (Fc fusion, UniProt P32942 30-485, looked up)
chain: QEFLLRVEPQNPVLSAGGSLFVNCSTDCPSSEKIALETSLSKELVASGMGWAAFNLSNVTGNSRILCSVYCNGSQITGSSNITVYRLPERVELAPLPPWQPVGQNFTLRCQVEDGSPRTSLTVVLLRWEEELSRQPAVEEPAEVTATVLASRDDHGAPFSCRTELDMQPQGLGLFVNTSAPRQLRTFVLPVTPPRLVAPRFLEVETSWPVDCTLDGLFPASEAQVYLALGDQMLNATVMNHGDTLTATATATARADQEGAREIVCNVTLGGERREARENLTVFSFLGPIVNLSEPTAHEGSTVTVSCMAGARVQVTLDGVPAAAPGQPAQLQLNATESDDGRSFFCSATLEVDGEFLHRNSSVQLRVLYGPKIDRATCPQHLKWKDKTRHVLQCQARGNPYPELRCLKEGSSREVPVGIPFFVNVTHNGTYQCQASSSRGKYTLVVVMDIEAGSSH
notes: not shown: IgG1 portion
B2: VCAM-1 domains 1 and 2 fused to human immunoglobulin Fc (Fc fusion, UniProt P19320 25-220, looked up)
chain: FKIETTPESRYLAQIGDSVSLTCSTTGCESPFFSWRTQIDSPLNGKVTNEGTTSTLTMNPVSFGNEHSYLCTATCESRKLEKGIQVEIYSFPKDPEIHLSGPLEAGKPITVKCSVADVYPFDRLEIDLLKGDHLMKSQEFLEDADRKSLETKSLEVTFTPVIEDIGKVLVCRAKLHIDEMDSVPTVRQAVKELQVY
notes: domain: domains 1 and 2; also called two domain form of VCAM-1; two domain VCAM-1 expression construct; not shown: human immunoglobulin Fc
B3: soluble ICAM-1/IgG1 fusion protein (Fc fusion, UniProt P05362 28-480, looked up)
chain: QTSVSPSKVILPRGGSVLVTCSTSCDQPKLLGIETPLPKKELLLPGNNRKVYELSNVQEDSQPMCYSNCPDGQSTAKTFLTVYWTPERVELAPLPSWQPVGKNLTLRCQVEGGAPRANLTVVLLRGEKELKREPAVGEPAEVTTTVLVRRDHHGANFSCRTELDLRPQGLELFENTSAPYQLQTFVLPATPPQLVSPRVLEVDTQGTVVCSLDGLFPVSEAQVHLALGDQRLNPTVTYGNDSFSAKASVSVTAEDEGTQRLTCAVILGNQSQETLQTVTIYSFPAPNVILTKPEVSEGTEVTVKCEAHPRAKVTLNGVPAQPLGPRAQLLLKATPEDNGRSFSCSATLEVAGQLIHKNQTRELRVLYGPRLDERDCPGNWTWPENSQQTPMCQAWGNPLPELKCLKDGTFPLPIGESVTVTRDLEGTYLCRARSTQGEVTRKVTVNVLSPRYE
notes: also called ICAM-I/IgG; not shown: IgG1 portion
B4: VCAM-1/IgG1 fusion protein (seven extracellular immunoglobulin-like domains) (Fc fusion, UniProt P19320 25-698, looked up)
chain: FKIETTPESRYLAQIGDSVSLTCSTTGCESPFFSWRTQIDSPLNGKVTNEGTTSTLTMNPVSFGNEHSYLCTATCESRKLEKGIQVEIYSFPKDPEIHLSGPLEAGKPITVKCSVADVYPFDRLEIDLLKGDHLMKSQEFLEDADRKSLETKSLEVTFTPVIEDIGKVLVCRAKLHIDEMDSVPTVRQAVKELQVYISPKNTVISVNPSTKLQEGGSVTMTCSSEGLPAPEIFWSKKLDNGNLQHLSGNATLTLIAMRMEDSGIYVCEGVNLIGKNRKEVELIVQEKPFTVEISPGPRIAAQIGDSVMLTCSVMGCESPSFSWRTQIDSPLSGKVRSEGTNSTLTLSPVSFENEHSYLCTVTCGHKKLEKGIQVELYSFPRDPEIEMSGGLVNGSSVTVSCKVPSVYPLDRLEIELLKGETILENIEFLEDTDMKSLENKSLEMTFIPTIEDTGKALVCQAKLHIDDMEFEPKQRQSTQTLYVNVAPRDTTVLVSPSSILEEGSSVNMTCLSQGFPAPKILWSRQLPNGELQPLSENATLTLISTKMEDSGVYLCEGINQAGRSRKEVELIIQVTPKDIKLTAFPSESVKEGDTVIISCTCGNVPETWIILKKKAETGDTVLKSIDGAYTIRKAQLKDAGVYECESKNKVGSQLRSLTLDVQGRENNKDYFSPE
notes: domain: seven extracellular immunoglobulin-like domains; also called VCAM-I/Ig; VCAM-I/IgG; not shown: IgG1 portion
B5: CD11a I domain/IgG chimeric protein (Fc fusion, UniProt P20701 153-335, looked up)
chain: GNVDLVFLFDGSMSLQPDEFQKILDFMKDVMKKLSNTSYQFAAVQFSTSYKTEFDFSDYVKRKDPDALLKHVKHMLLLTNTFGAINYVATEVFREELGARPDATKVLIIITDGEATDSGNIDAAKDIIRYIIGIGKHFQTKESQETLHKFASKPASEFVKILDTFEKLKDLFTELQKKIYVIE
notes: domain: I domain; Negative control in the I domain ELISA; also called CD11a/IgG4 protein; not shown: IgG4 portion
B6: E-selectin (immobilized) (ligand, UniProt P16581 22-556, looked up)
chain: WSYNTSTEAMTYDEASAYCQQRYTHLVAIQNKEEIEYLNSILSYSPSYYWIGIRKVNNVWVWVGTQKPLTEEAKNWAPGEPNNRQKDEDCVEIYIKREKDVGMWNDERCSKKKLALCYTAACTNTSCSGHGECVETINNYTCKCDPGFSGLKCEQIVNCTALESPEHGSLVCSHPLGNFSYNSSCSISCDRGYLPSSMETMQCMSSGEWSAPIPACNVVECDAVTNPANGFVECFQNPGSFPWNTTCTFDCEEGFELMGAQSLQCTSSGNWDNEKPTCKAVTCRAVRQPQNGSVRCSHSPAGEFTFKSSCNFTCEEGFMLQGPAQVECTTQGQWTQQIPVCEAFQCTALSNPERGYMNCLPSASGSFRYGSSCEFSCEQGFVLKGSKRLQCGPTGEWDNEKPTCEAVRCDAVHQPPKGLVRCAHSPIGEFTYKSSCAFSCEEGFELHGSTQLECTSQGQWTEEVPSCQVVKCSSLAVPGKINMSCSGEPVFGTVCKFACPEGWTLNGSAARTCGATGHWSGLLPTCEAPTESNIP
notes: Control adhesion molecule; also called E-selection

Columns and labels:
[1] = molecular target: T1, human αd/CD18 expressed on transfected cells (human, UniProt P05107 23-769); experiment: summary of the adhesion and flow cytometry assays
T1 construct: whole, on cells; Heterodimer on COS, CHO or JY transfectants; also called αd/CD18 transfectants; αd/CD18 CHO transfected cells

[2] = molecular target: T1, human αd/CD18 expressed on transfected …; experiment: adhesion of transfected CHO cells to immobilized CAM, crystal violet, A570
[3] = molecular target: T2, LFA-1 leucine zipper fusion protein (UniProt P20701 26-1090; P05107 23-700); experiment: ELISA, CAM/Ig on captured integrin
T2 construct: also called LFA-1LZ; captured CD11a/CD18; not shown: leucine zipper strand

[4] = molecular target: T1, human αd/CD18 expressed on transfected …; experiment: adhesion of transfected CHO cells to immobilized CAM, crystal violet
[5] = molecular target: T3, α4β1 expressed on CHO cells (UniProt P13612 34-1032; P05556 21-798, limits assumed); experiment: as above
T3 construct: whole, on cells; also called VLA-4; α4 transformed CHO cells

[6] = molecular target: T2, LFA-1 leucine zipper fusion protein; experiment: ELISA, CAM/Ig on LFA-1LZ captured with TS2/4.1
[7] = molecular target: B1; experiment: ELISA, detection with anti-IgG4 HP6023
[8] = molecular target: B3; experiment: ELISA, detection with anti-IgG4 HP6023
[9] = molecular target: B4; experiment: ELISA, detection with anti-IgG4 HP6023
[10] = molecular target: T1, human αd/CD18 expressed on transfected …; experiment: adhesion of αdβ2-transfected CHO cells to coated wells

T3 sequence (P13612 34-1032 limits assumed, chain 1 of 2): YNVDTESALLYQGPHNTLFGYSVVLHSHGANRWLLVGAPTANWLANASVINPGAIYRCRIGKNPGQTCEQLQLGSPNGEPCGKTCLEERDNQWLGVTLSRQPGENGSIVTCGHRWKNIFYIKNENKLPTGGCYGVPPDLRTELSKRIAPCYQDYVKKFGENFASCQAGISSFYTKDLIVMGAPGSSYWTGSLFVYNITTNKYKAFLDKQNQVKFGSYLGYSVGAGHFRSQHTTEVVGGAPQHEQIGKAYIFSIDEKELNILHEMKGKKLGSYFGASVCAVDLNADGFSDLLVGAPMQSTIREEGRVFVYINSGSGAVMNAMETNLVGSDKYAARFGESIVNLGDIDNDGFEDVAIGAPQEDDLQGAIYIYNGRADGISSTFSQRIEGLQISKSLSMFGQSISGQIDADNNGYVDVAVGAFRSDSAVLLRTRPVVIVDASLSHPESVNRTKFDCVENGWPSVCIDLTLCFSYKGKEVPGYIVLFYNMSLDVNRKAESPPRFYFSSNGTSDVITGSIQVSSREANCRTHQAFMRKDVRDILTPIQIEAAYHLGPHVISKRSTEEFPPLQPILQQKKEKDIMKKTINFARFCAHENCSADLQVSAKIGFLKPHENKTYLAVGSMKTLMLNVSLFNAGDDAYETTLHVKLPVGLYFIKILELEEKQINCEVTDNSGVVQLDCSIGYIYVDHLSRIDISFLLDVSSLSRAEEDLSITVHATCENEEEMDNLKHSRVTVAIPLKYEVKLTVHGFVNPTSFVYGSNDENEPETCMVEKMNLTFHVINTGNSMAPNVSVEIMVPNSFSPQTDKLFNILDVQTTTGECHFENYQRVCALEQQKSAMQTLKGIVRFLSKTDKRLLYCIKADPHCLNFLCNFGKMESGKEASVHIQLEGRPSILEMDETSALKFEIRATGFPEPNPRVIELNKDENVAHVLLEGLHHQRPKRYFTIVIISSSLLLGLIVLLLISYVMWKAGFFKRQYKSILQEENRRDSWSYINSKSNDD
T3 sequence (P05556 21-798 limits assumed, chain 2 of 2): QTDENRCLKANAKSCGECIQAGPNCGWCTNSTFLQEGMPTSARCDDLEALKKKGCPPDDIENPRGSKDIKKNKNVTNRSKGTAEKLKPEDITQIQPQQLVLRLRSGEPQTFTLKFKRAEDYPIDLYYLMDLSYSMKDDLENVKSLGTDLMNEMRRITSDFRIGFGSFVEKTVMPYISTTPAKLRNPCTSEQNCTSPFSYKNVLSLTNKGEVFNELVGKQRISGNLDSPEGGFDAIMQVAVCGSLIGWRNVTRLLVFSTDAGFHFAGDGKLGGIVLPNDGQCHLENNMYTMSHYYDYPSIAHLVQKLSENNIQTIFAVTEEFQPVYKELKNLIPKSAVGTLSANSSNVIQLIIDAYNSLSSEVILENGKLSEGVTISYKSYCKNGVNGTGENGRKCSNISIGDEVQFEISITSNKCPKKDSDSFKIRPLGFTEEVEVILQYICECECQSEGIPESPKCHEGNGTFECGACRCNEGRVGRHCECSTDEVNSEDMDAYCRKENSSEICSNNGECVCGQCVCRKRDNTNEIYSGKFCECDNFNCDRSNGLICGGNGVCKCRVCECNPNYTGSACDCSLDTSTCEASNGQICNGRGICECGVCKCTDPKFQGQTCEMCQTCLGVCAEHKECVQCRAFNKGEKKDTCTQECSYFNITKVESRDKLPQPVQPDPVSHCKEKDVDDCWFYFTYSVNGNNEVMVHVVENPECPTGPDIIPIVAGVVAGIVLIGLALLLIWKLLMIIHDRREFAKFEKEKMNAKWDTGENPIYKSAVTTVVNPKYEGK

Binder: B1
- binding result [1]: binds

Binder: B2
- binding result [2]: binds

Binder: B3
- fold above background [3]: ~15 fold
- binding result [4]: no binding (tested: 0.5 µg/well)
- binding result [5]: no binding (tested: 0.5 µg/well)

Binder: B4
- binding result [6]: no binding

Binder: B5
- binding result [7]: no binding
- binding result [8]: no binding
- binding result [9]: no binding

Binder: B6
- binding result [10]: no binding (tested: 100 ng/ml coat)
